Assay results as given in paper PMC7004160.

Key:
[1] = molecular target: superfolder GFP [GFP: P42212]; test: not stated; photobody 10, caged or photodeprotected, with purified sfGFP
[2] = molecular target: superfolder GFP [GFP: P42212]; test: MST; sfGFP as the fluorescent antigen, photobody added in a dilution series; before and after photodeprotection (365 nm)

Substance: anti-GFP minimizer Y113ONBY-photobody (construct 10), caged (VHH)
- Kd [1]: 2280 nM

Substance: anti-GFP NPY-photobody (construct 5), GFP-enhancer nanobody with Y37NPY, caged (VHH)
- Kd [2]: 460 nM

Substance: anti-GFP ONBY-photobody (construct 4), GFP-enhancer nanobody with Y37ONBY, caged (VHH)
- Kd [2]: > 10000 nM
